Paper PMC8446450, “Autosomal Recessive Cutis Laxa 1C Mutations Disrupt the Structure and Interactions of Latent TGFβ Binding Protein-4” (Frontiers in Genetics, 2021)
Substitutions are numbered along the chain they refer to. Names and notes keep the numbering of the source. Read-outs that look alike come from different tables or passages of the source. Blank lines part the entries; values can stand above or below the molecule they belong to.

Assays:
[1] = biological target: T1, Fibulin-4, full length (UniProt O95967 24-443, biotin (biotinylated ligand on streptavidin biosensors, position not stated)); assay: BLI; OctetRED96, immobilised full-length fibulin-4, NWT or C274G 1000-62.5 nM, 10 mM HEPES, 150 mM NaCl, pH 7.4, 0.005% Tween-20, 25°C; steady state analysis
T1 construct: full-length fibulin-4; source: expressed and purified as previously described (Choudhury et al., 2009)
T1 sequence (looked up): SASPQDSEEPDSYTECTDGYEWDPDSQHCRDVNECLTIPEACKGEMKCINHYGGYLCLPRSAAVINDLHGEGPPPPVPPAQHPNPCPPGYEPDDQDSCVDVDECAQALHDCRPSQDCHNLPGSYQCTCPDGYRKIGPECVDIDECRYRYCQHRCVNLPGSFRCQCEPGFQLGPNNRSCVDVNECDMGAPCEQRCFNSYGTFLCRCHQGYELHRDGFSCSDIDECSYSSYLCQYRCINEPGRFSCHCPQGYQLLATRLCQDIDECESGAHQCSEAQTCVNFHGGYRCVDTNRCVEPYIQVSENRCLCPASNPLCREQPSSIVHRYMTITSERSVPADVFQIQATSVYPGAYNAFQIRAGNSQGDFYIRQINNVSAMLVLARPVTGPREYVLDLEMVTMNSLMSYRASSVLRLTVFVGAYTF

[2] = biological target: Latent TGFβ binding protein-4 (LTBP4S) C-terminal region, ARCL1C mutant C1286S (human); assay: SPR; ProteOn, LTBP4 C-terminal constructs amine-coupled on GLC chip, fibrillin-1 PF3 injected 100-3.1 nM, 10 mM HEPES, 150 mM NaCl, pH 7.4, 0.005% Tween-20, 25°C; steady state (equilibrium) analysis
[3] = biological target: T2, Tropoelastin (SHELdelta26A) (biotin where immobilised on streptavidin biosensors (position not given)); assay: BLI
T2 chain: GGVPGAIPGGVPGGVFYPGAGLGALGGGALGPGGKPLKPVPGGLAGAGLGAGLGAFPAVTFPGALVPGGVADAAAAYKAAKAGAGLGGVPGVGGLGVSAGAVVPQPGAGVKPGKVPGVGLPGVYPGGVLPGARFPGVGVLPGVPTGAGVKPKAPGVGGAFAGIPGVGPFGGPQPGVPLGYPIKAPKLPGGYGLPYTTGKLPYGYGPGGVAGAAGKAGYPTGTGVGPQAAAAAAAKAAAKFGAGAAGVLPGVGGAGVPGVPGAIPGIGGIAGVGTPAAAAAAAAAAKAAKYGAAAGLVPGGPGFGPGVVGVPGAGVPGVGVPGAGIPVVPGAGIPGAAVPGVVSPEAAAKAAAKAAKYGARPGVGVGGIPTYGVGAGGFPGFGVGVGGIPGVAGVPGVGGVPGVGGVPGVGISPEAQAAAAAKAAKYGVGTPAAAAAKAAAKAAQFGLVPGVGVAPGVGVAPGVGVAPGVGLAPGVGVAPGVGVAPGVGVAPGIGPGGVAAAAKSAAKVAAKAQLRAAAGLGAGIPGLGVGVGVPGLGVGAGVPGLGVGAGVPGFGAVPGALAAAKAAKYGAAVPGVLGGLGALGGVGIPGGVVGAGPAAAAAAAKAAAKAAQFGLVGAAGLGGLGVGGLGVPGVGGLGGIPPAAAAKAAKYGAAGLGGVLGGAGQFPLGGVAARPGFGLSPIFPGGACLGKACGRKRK

[4] = biological target: Tropoelastin (SHELdelta26A); assay: BLI; OctetRED96, biotinylated tropoelastin on streptavidin biosensors, LTBP4 C-terminal constructs 375-23.4 nM, 10 mM HEPES, 150 mM NaCl, pH 7.4, 0.005% Tween-20, 25°C; steady state analysis
[5] = biological target: T3, Fibrillin-1 PF3 fragment (UniProt P35555 45-722); assay: SPR; ProteOn, LTBP4 C-terminal constructs amine-coupled on GLC chip, fibrillin-1 PF3 injected 100-3.1 nM, 10 mM HEPES, 150 mM NaCl, pH 7.4, 0.005% Tween-20, 25°C; steady state (equilibrium) analysis; details: both partners purified
T3 construct: signal peptide in the construct; fibrillin-1 PF3 fragment, residues 1-722 (Rock et al., 2004); also called N-terminal region of fibrillin-1; source: purified
T3 sequence (P35555 45-722): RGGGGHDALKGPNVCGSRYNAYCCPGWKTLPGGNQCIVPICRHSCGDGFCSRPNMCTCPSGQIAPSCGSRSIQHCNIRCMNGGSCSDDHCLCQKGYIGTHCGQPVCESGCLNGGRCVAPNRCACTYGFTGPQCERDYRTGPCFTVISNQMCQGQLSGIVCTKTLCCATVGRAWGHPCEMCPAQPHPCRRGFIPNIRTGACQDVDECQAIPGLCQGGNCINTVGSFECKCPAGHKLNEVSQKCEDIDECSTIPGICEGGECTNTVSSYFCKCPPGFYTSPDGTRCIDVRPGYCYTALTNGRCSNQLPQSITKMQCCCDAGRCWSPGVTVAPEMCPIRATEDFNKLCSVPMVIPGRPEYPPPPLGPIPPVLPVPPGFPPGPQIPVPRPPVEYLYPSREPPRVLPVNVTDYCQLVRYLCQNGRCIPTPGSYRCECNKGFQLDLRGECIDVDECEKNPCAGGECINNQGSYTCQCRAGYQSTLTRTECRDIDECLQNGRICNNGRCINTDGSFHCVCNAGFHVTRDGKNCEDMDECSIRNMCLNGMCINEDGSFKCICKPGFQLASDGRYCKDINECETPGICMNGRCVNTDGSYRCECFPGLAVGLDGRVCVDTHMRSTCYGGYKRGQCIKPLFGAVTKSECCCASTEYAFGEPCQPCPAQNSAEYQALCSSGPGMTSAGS

Molecule: Latent TGFβ binding protein-4 (LTBP4S) N-terminal region, ARCL1C mutant C274G (domain or fragment)
Kd [1]: 177 nM

Molecule: Fibrillin-1 PF3 fragment (from UniProt P35555 45-722) (domain or fragment)
Kd [2]: 12.2 nM

B3: Latent TGFβ binding protein-4 (LTBP4S) C-terminal region, ARCL1C mutant C1286S (domain or fragment)
chain: RECYFDTAAPDACDNILARNVTWQECCCTVGEGWGSGCRIQQCPGTETAEYQSLCPHGRGYLAPSGDLSLRRDVDECQLFRDQVCKSGVCVNTAPGYSCYCSNGYYYHTQRLECIDNDECADEEPACEGGRCVNTVGSYHCTSEPPLVLDGSQRRCVSNESQSLDDNLGVCWQEVGADLVCSHPRLDRQATYTECCCLYGEAWGMDCALCPAQDSDDFEALCNVLRPPAYSPPRPGGFGLPYEYGPDLGPPYQGLPYGPELYPPPALPYDPYPPPPGPFARREAPYGAPRFDMPDFEDDGGPYGESEAPAPPGPGTRWPYRSRDTRRSFPEPEEPPEGGSYAGSLAEPYEELEAEECGILDGCTNGRCVRVPEGFTCRCFDGYRLDMTRMACVDINECDEAEAASPLCVNARCLNTDGSFRCICRPGFAPTHQPHHCAPARPRA
Kd [3]: 65 nM | Kd [4]: 151 nM

Other lines, results leading:

Kd ([1]; both partners purified): 1290 nM
B1: Latent TGFβ binding protein-4 (LTBP4S) N-terminal region, wild type (domain or fragment, human, UniProt Q8N2S1-2 29-394, looked up)
chain: GERLRVRFTPVVCGLRCVHGPTGSRCTPTCAPRNATSVDSGAPGGAAPGGPGFRAFLCPLICHNGGVCVKPDRCLCPPDFAGKFCQLHSSGARPPAPAVPGLTRSVYTMPLANHRDDEHGVASMVSVHVEHPQEASVVVHQVERVSGPWEEADAEAVARAEAAARAEAAAPYTVLAQSAPREDGYSDASGFGYCFRELRGGECASPLPGLRTQEVCCRGAGLAWGVHDCQLCSERLGNSERVSAPDGPCPTGFERVNGSCEDVDECATGGRCQHGECANTRGGYTCVCPDGFLLDSSRSSCISQHVISEAKGPCFRVLRDGGCSLPILRNITKQICCCSRVGKAWGRGCQLCPPFGSEGFREICPA
notes: numbers count on: LTBP4S; N-glycosylated (PNGase-F shift); Biotinylated when immobilised on streptavidin biosensors in the fibronectin BLI experiment (general BLI methods); also called NWT; LTBP4 N-terminal region

Kd [3]: 6.4 nM | Kd [4]: 57 nM | Kd [5]: 15.8 nM
B2: Latent TGFβ binding protein-4 (LTBP4S) C-terminal region, wild type (domain or fragment, human, UniProt Q8N2S1-2 1114-1557, looked up)
chain: B3 chain with S143C
notes: numbers count on: LTBP4S; N-glycosylated (PNGase-F shift); also called CWT; C WT
